{"source": "patent US10583167B2", "about": "“Mammalian glucosidase inhibitors, methods for their use and pharmaceutical compositions thereof” (THE UNIVERSITY OF BRITISH COLUMBIA, priority 2015, dated 2020)", "key": {"[1]": {"system": "trypsin, chymotrypsin, proteinase K, and Lys-C"}, "[2]": {"settings": "11M HCl at 37° C. for four days, HPLC", "quoted_text": "The sample was diluted and neutralized before desalting by C18 reverse phase chromatography. The peptide mixture was injected into an Agilent™ 6460 QQQ LC/MS mass spectrometer. Elution and MS/MS analysis was carried out over a 40-minute period. A script was written to predict all possible fragments for the helianthamide sequence in the event of random hydrolysis and was used to analyze the resulting MS and MS/MS peaks.\nIntact peptide was incubated in 11M HCl at 37° C. for four days."}, "[3]": {"target": "T1, human pancreatic α-amylase (HPA) (Homo sapiens, UniProt P04746)", "T1 construct": "made in house; host or cells: Pichia pastoris", "T1 sequence (P04746 16-511)": "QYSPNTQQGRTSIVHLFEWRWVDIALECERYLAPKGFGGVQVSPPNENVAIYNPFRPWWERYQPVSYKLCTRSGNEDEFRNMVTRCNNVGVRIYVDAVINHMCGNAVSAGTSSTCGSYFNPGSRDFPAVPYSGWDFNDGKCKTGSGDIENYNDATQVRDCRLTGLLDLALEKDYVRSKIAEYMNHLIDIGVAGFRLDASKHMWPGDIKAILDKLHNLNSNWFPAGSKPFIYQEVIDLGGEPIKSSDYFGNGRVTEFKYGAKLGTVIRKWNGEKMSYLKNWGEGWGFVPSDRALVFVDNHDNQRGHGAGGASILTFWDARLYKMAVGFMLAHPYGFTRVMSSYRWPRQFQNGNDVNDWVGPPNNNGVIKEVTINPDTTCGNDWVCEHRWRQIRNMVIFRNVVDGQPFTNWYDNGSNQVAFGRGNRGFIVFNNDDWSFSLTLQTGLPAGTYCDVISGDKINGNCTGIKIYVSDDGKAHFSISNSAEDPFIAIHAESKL", "assay": "Kinetic analysis of HPA inhibition (CNP-G3 hydrolysis, Morrison / Michaelis-Menten)", "format": "biochemical", "settings": "for Ki / inhibition constant estimated in preliminary tests: preliminary inhibitory studies with remaining material", "procedure": "A detailed protocol of this expression can be found in the work done by Rydberg et al. (39) Expression was carried out in Pichia pastoris. Colonies were grown in 600 mL BMGY media at 30° C. 200 RPM. 20 mL of the overnight culture was added to 600 mL BMGY. After 16 hours the cells were transferred to 300 mL BMMY. After one day 2 mL of 50% methanol was added. The culture was left overnight. The culture supernatant was collected and purified via Phenyl Sepharose™ and Hitrap Q™ columns. Deglycosylation was performed with EndoF™.\nReactions were run with a final [CNPG3]=5 mM. […] Kiapp was then used to calculate Ki.\nGiven the low-nM estimate of Ki for the natural extract, kinetic analysis could not be pursued through standard Michaelis-Menten kinetics (22). In this study, inhibition constants below 50 nM were determined using the Morrison method: inhibition dose response curves at [S]=KM were constructed for varying enzyme concentrations (23, 24). The resulting data (FIG. 2A) was fit to the Morrison equation 1 to determine Ki,app, which could be converted to Ki through equation 2, which is the relationship between these values for competitive inhibition."}, "[4]": {"target": "T2, Green coffee bean α-galactosidase (Coffea arabica, UniProt Q42656)", "T2 construct": "Green coffee bean α-galactosidase; from tissue; host or cells: green coffee beans", "T2 sequence (Q42656 16-378)": "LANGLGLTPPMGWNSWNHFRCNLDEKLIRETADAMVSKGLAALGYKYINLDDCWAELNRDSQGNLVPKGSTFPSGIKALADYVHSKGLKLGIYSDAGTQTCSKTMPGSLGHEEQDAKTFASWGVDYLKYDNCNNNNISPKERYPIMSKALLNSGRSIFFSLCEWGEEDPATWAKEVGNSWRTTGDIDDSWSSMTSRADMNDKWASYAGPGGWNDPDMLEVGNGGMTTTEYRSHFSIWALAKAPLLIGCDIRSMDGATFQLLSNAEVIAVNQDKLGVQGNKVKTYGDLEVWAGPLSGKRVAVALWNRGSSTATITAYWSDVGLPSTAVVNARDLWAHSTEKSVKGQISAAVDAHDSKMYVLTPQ", "assay": "Inhibitory specificity: kinetic analysis", "format": "biochemical", "settings": "up to 1 μM", "procedure": "(§1) Assays were performed on a Varian Cary 300™ UV/Vis spectrophotometer. The release of 2-chloro-nitrophenol resulting from the amylase catalyzed hydrolysis of 2-chloro-p-nitrophenyl-α-D-maltotrioside was monitored at 400 nm. Reactions were run at 30° C. in 50 mM sodium phosphate, 100 mM sodium chloride (pH 7.0). Reactions were monitored over 5 minutes to measure the initial reaction rate. […] Reactions were run with a final [CNPG3]=5 mM. […] Up to 5 different enzyme concentrations were used, ranging from 1 nM to 10 nM. v/vo was plotted against [I] for each enzyme concentration to form a series of dose response curves. […] Kiapp was then used to calculate Ki. […] Details of this process can be found in the work done by Tarling et al. (33). After kinetic analysis with HPA, nine additional enzymes were tested against helianthamide. Concentrations of up to 1 μM of Helianthamide were used to assess for inhibition.\n(§2) Inhibition of nine other glycosidases was explored (TABLE 4)."}, "[5]": {"target": "Roseburia inulinivorans α-amylase A", "assay": "Inhibitory specificity: kinetic analysis", "format": "biochemical", "settings": "up to 1 μM", "procedure": "as §1, §2"}, "[6]": {"target": "Bovine liver β-galactosidase", "assay": "Inhibitory specificity: kinetic analysis", "format": "biochemical", "settings": "up to 1 μM", "procedure": "as §1, §2"}, "[7]": {"target": "Brewer's yeast α-glucosidase", "assay": "Inhibitory specificity: kinetic analysis", "format": "biochemical", "settings": "up to 1 μM", "procedure": "as §1, §2"}, "[8]": {"target": "Bacillus licheniformis α-amylase (Bacillus licheniformis, UniProt P06278)", "sequence (P06278 30-512)": "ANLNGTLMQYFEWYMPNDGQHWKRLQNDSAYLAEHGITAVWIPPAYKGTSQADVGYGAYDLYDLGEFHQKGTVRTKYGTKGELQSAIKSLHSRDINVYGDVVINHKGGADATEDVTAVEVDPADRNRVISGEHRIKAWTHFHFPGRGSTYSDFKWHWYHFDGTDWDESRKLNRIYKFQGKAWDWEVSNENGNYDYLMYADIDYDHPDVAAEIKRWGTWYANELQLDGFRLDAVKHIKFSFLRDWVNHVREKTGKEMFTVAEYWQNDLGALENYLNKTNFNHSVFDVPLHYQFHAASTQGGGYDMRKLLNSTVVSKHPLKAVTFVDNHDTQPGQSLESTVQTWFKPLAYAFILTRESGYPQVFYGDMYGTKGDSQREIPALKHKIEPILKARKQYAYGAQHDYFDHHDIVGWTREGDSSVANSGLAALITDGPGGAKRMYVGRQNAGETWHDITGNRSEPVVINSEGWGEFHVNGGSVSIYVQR", "assay": "Inhibitory specificity: kinetic analysis", "format": "biochemical", "settings": "up to 1 μM", "procedure": "as §1, §2"}, "[9]": {"target": "Butyrivibrio fibrisolvens α-amylase B", "assay": "Inhibitory specificity: kinetic analysis", "format": "biochemical", "settings": "up to 1 μM", "procedure": "as §1, §2"}, "[10]": {"target": "Human maltase-glucoamylase (Homo sapiens, UniProt O43451)", "sequence (O43451 whole entry)": "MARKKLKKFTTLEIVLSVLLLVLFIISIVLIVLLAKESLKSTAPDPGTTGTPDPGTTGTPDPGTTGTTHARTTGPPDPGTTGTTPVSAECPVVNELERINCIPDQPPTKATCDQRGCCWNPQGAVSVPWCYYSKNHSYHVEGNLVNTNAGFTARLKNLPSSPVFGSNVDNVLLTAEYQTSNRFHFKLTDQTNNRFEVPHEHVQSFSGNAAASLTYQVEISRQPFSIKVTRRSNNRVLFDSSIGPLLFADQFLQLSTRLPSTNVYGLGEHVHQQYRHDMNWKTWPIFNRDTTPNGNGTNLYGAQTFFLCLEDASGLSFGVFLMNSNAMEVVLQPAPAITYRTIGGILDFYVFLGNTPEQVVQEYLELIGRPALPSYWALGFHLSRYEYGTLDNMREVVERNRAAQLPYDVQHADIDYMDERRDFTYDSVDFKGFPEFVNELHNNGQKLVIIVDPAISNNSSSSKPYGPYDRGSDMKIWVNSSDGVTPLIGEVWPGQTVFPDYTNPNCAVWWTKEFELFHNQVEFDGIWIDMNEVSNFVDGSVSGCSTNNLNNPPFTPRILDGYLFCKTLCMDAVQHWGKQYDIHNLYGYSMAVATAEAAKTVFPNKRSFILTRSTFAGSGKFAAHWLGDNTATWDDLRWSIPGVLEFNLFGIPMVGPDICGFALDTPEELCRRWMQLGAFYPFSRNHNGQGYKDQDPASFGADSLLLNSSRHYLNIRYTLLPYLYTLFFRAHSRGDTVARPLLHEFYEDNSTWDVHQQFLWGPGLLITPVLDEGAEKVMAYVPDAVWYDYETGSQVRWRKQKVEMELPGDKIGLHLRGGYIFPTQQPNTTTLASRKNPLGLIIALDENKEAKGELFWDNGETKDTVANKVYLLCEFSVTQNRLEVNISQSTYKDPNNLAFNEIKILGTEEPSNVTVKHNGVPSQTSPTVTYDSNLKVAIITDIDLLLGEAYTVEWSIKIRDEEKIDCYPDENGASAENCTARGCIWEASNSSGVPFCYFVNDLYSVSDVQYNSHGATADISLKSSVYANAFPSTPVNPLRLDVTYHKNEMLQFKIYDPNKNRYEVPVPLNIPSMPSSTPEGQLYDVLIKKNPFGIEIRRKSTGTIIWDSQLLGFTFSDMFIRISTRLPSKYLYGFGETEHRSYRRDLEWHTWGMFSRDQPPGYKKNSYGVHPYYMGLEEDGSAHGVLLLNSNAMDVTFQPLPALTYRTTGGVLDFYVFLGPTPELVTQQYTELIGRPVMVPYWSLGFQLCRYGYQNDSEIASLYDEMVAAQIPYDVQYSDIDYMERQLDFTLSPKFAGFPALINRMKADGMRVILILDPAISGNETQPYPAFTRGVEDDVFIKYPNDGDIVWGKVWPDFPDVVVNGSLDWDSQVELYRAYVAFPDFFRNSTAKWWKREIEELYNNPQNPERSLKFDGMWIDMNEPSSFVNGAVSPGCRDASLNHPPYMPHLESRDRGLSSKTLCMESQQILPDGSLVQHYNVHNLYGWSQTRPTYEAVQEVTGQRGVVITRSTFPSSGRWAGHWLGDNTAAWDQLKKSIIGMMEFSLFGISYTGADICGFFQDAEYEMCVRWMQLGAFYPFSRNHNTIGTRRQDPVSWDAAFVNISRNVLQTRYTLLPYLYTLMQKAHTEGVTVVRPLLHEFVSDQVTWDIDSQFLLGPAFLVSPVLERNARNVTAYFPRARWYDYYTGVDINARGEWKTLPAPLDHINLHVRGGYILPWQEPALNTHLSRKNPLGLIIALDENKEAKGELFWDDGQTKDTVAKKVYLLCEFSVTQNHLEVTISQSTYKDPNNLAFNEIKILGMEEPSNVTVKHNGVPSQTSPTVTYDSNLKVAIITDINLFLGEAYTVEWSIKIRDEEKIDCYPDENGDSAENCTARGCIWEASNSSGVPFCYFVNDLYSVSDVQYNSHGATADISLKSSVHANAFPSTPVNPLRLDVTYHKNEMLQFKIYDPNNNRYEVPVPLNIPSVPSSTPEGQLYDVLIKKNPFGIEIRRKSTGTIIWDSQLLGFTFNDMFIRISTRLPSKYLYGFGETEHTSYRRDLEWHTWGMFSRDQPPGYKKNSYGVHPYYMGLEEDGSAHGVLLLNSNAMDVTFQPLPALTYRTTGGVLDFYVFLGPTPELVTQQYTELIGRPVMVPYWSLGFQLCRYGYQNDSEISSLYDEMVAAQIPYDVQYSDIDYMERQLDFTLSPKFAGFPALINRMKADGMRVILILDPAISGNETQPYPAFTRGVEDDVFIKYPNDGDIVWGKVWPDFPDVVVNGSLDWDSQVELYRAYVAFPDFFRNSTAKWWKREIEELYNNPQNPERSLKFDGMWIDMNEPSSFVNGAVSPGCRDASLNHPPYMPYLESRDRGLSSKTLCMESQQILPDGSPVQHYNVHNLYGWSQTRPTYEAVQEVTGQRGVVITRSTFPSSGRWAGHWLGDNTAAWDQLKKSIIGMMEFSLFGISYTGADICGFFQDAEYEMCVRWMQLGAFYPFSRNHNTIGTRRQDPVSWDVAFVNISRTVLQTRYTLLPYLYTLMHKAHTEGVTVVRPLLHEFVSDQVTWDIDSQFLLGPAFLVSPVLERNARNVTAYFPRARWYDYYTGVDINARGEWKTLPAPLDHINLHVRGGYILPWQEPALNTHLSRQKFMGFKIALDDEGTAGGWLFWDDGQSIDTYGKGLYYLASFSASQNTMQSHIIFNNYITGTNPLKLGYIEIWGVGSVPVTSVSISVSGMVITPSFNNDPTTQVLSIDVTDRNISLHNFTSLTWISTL", "assay": "Inhibitory specificity: kinetic analysis", "format": "biochemical", "settings": "up to 1 μM", "procedure": "as §1, §2"}, "Jack bean α-mannosidase": {"target": "T3, Jack bean α-mannosidase (Canavalia ensiformis, UniProt C0HJB3)", "T3 construct": "Jack bean α-mannosidase; from tissue; host or cells: jack bean", "T3 sequence (C0HJB3 1-981)": "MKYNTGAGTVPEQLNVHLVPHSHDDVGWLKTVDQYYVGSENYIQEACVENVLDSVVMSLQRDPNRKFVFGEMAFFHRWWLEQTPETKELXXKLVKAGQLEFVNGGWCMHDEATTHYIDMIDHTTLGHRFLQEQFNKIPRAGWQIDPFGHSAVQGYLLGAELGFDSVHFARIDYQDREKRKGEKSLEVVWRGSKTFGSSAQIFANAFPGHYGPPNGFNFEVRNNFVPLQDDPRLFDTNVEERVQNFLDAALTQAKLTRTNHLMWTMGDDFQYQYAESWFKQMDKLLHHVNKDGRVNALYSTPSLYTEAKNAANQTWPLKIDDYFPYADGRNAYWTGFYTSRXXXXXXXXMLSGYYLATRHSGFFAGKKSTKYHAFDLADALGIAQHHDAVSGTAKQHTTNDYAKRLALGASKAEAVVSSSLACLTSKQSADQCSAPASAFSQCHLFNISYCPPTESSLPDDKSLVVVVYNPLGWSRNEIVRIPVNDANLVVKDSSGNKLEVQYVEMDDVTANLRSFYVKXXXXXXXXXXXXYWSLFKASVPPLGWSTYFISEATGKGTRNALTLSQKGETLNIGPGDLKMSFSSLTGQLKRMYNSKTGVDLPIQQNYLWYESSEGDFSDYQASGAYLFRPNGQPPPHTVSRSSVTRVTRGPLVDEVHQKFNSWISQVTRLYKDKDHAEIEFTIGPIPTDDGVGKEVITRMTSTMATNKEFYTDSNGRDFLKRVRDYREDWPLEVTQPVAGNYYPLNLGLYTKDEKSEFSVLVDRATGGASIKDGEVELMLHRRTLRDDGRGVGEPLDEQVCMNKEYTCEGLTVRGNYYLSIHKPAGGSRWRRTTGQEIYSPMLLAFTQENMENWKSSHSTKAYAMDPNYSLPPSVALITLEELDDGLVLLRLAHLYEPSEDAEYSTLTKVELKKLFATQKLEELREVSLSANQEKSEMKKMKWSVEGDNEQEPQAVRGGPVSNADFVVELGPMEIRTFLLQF", "assay": "Inhibitory specificity: kinetic analysis", "format": "biochemical", "settings": "up to 1 μM", "procedure": "as §1, §2"}, "Almond β-glucosidase": {"target": "Almond β-glucosidase", "assay": "Inhibitory specificity: kinetic analysis", "format": "biochemical", "settings": "up to 1 μM", "procedure": "as §1, §2"}, "[11]": {"target": "T1, human pancreatic α-amylase (HPA)", "settings": "from parallel screen; read-out: Ki against HPA; cited from earlier work"}, "mammalian alpha-amylase": {"target": "T4, mammalian alpha-amylase (Homo sapiens, UniProt P04746)", "T4 sequence (P04746 16-511)": "T1 sequence (P04746 16-511)", "assay": "Inhibitory activity of truncated and fusion peptides", "format": "biochemical", "settings": "for Inhibitory Activity: truncated peptides"}}, "note": "Entries after “also recorded” stand apart in the source; their conditions may differ. Bridges are numbered along the chain shown (N, C = ends).", "data": [{"substance": "ESGNSCYIYHGVSGICKASCAEDEKAMAGMGVCEGHLCCYKTPW (listed as Stichodactyla helianthus) [helianthamide, 44 amino acid peptide from the sea anemone Stichodactyla helianthus; natural, synthetic and recombinant forms]", "values": [{"measurement": "resistance to proteolysis", "setting": "[1]", "value": "resistant to proteolysis"}, {"measurement": "intact peptide remaining after acid incubation", "setting": "[2]", "value": "a large proportion of intact peptide remained"}, {"measurement": "Ki / inhibition constant estimated in preliminary tests", "setting": "[3]", "value": "low-nM"}, {"measurement": "Ki / inhibition constant estimated in preliminary tests", "setting": "[3]; listed as Helianthamide", "value": "low nanomolar; also recorded: low nano-molar"}, {"measurement": "mode of HPA inhibition", "setting": "[3]; preliminary tests, natural material", "value": "reversible competitive inhibition"}, {"measurement": "Ki", "setting": "[4]", "value": "> 1000", "unit": "nM"}, {"measurement": "Ki", "setting": "[5]", "value": "> 1000", "unit": "nM"}, {"measurement": "Ki", "setting": "[6]", "value": "> 1000", "unit": "nM"}, {"measurement": "Ki", "setting": "[7]", "value": "> 1000", "unit": "nM"}, {"measurement": "Ki", "setting": "[8]", "value": "> 1000", "unit": "nM"}, {"measurement": "Ki", "setting": "[9]", "value": "> 1000", "unit": "nM"}, {"measurement": "Ki", "setting": "[10]", "value": "> 1000", "unit": "nM"}, {"measurement": "Ki", "setting": "Jack bean α-mannosidase", "value": "> 1000", "unit": "nM"}, {"measurement": "Ki", "setting": "Almond β-glucosidase", "value": "> 1000", "unit": "nM"}]}, {"substance": "Montbretin A", "values": [{"measurement": "Ki", "setting": "[11]", "value": 8, "unit": "nM"}]}, {"substance": "Ac-YIYH-NH2 (listed as Stichodactyla helianthus) [truncated peptide, Ac represents the acetyl functional group]", "values": [{"measurement": "mammalian alpha-amylase inhibitory activity (in words)", "setting": "mammalian alpha-amylase", "value": "did not have detectable"}, {"measurement": "Inhibitory Activity", "setting": "mammalian alpha-amylase", "value": "no inhibition detected"}]}, {"substance": "Ac-YIYHGVSGI-NH2 (listed as Stichodactyla helianthus) [truncated peptide]", "values": [{"measurement": "Inhibitory Activity", "setting": "mammalian alpha-amylase", "value": 25, "unit": "µM"}]}, {"substance": "Ac-CYIYHGVSGIC-NH2 (disulfide 1-11 (inferred); listed as Stichodactyla helianthus) [truncated peptide]", "values": [{"measurement": "Inhibitory Activity", "setting": "mammalian alpha-amylase", "value": 30, "unit": "µM"}]}]}
